From the supplement of paper PMC7877785
± gives the uncertainty stated by the source.

Test: self-splicing fitness, log relative to wild type (ln ratio); higher = more splicing; Tetrahymena group I intron in knt gene, E. coli kanamycin selection, DiMSum; sequences stand for … in CUCUCU…GGAGGGAAAAGUUAUCAGGCAUGCACCUGGUAGCUAGUCUUUAAACCAAUAGAUUGCAUCGGUUUAAAAGGCAAGACCGUCAAAUUGCGGGAAAGGGGUCAACAGCCGUUCAGUACCAAGUCUCAGGGGAAACUUUGAGAUGGCCUUGCAAAGGGUAUGGUAAUAAGCUGACGGACAUGGUCCUAACCACGCAGCCAAGUCCUAAGUCAACAGAUCUUCUGUUGAUAUGGAUGCAGUUCACAGACUAAAUGUCGGUCGGGGAAGAUGUAUUCUUCUCAUAAGAUAUAGUCGGACCUCUCCUUAAUGGGAGCUAGCGGAUGAAGUGAUGCAACACUGGAGCCGCUGGGAACUAAUUUGUAUGCGAAAGUAUAUUGAUUAGUUUUGGAGUACUCGUGGUCG
Procedure, shortened: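 Six replicate transformations of E. coli BL21(DE3) with a pET-22b(+) library were grown overnight at 37°C or 30°C. The library randomised all eight P1ex-region intron nucleotides, the intron lying in the knt kanamycin-resistance gene, and plates were LB agar with or without 25 μg/mL kanamycin plus 100 μg/mL carbenicillin, 50 μM IPTG and 0.2% rhamnose. Pooled colonies were amplicon-sequenced on an Illumina HiSeq 2500, and fitness is the DiMSum error-weighted combination of wild-type-normalised replicate fold changes, kanamycin versus none.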

| Sequence | self-splicing fitness (ln) (30 °C) | self-splicing fitness (ln) (37 °C) |
| --- | --- | --- |
| CGCCAGCAAUAUUACGCCGG | -3.13 ± 0.2 | -3.21 ± 0.35 |
| CGCCAGCAAUAUUACGCGGU | -3.04 ± 0.13 | -3.3 ± 0.22 |
| CGCCAGCAAUAUUACGCGUA | -2.72 ± 0.18 | -2.31 ± 0.18 |
| CGCCAGCAAUAUUACGCGUU | -2.03 ± 0.12 | -2.31 ± 0.19 |
| CGCCAGCAAUAUUACGCUAA | -2.34 ± 0.15 | -1.29 ± 0.14 |
| CGCCAGCAAUAUUACGCUGA | -3.51 ± 0.24 | -2.24 ± 0.28 |
| CGCCAGCAAUAUUACGGCCC | -2.2 ± 0.12 | -0.207 ± 0.25 |
| CGCCAGCAAUAUUACGGGUA | -0.998 ± 0.064 | -0.377 ± 0.069 |
| CGCCAGCAAUAUUACGGGUC | -2.81 ± 0.14 | -2.6 ± 0.17 |
| CGCCAGCAAUAUUACGGGUG | -4.13 ± 0.14 | -2.58 ± 0.12 |
| CGCCAGCAAUAUUACGGUCA | -0.14 ± 0.066 | 0.542 ± 0.092 |
| CGCCAGCAAUAUUACGUAAC | -3.91 ± 0.24 | -2.96 ± 0.28 |
| CGCCAGCAAUAUUACGUAGU | -2.67 ± 0.1 | -1.18 ± 0.11 |
| CGCCAGCAAUAUUACGUCCG | -0.462 ± 0.1 | -0.546 ± 0.12 |
| CGCCAGCAAUAUUACGUUAA | -3.31 ± 0.22 | -2.57 ± 0.17 |
| CGCCAGCAAUAUUACGUUAU | -3.32 ± 0.16 | -2.22 ± 0.18 |
| CGCCAGCAAUAUUACGUUGC | -3.95 ± 0.29 | -2.45 ± 0.22 |
| CGCCAGCAAUAUUACGUUUC | -3.41 ± 0.12 | -2.42 ± 0.24 |
| CGCGAGCAAUAUUACGAAAG | -2.75 ± 0.26 | -1.65 ± 0.23 |
| CGCGAGCAAUAUUACGAACA | -3.27 ± 0.45 | -1.19 ± 0.23 |

| Sequence | self-splicing fitness (ln) (30 °C) | self-splicing fitness (ln) (37 °C) |
| --- | --- | --- |
| CGCGAGCAAUAUUACGACAC | -3.42 ± 0.49 | -1.36 ± 0.41 |
| CGCGAGCAAUAUUACGAUAC | -3.81 ± 0.3 | -2.56 ± 0.28 |
| CGCGAGCAAUAUUACGAUGG | -1.66 ± 0.12 | -1.2 ± 0.14 |
| CGCGAGCAAUAUUACGAUGU | -3.79 ± 0.23 | -2.74 ± 0.22 |
| CGCGAGCAAUAUUACGCAUG | -2.48 ± 0.2 | -2.14 ± 0.16 |
| CGCGAGCAAUAUUACGCCUA |  | -2.42 ± 0.45 |
| CGCGAGCAAUAUUACGCCUG | -2.95 ± 0.34 | -1.99 ± 0.26 |
| CGCGAGCAAUAUUACGCGAU | -3.96 ± 0.24 | -3.09 ± 0.27 |
| CGCGAGCAAUAUUACGCGGU | -3.56 ± 0.3 | -2.79 ± 0.18 |
| CGCGAGCAAUAUUACGCUAU | -3.44 ± 0.34 | -2.2 ± 0.23 |
| CGCGAGCAAUAUUACGCUUA | -2.27 ± 0.23 | -1.97 ± 0.24 |
| CGCGAGCAAUAUUACGGCAC |  | -1.87 ± 0.41 |
| CGCGAGCAAUAUUACGGUAG | -1.19 ± 0.12 | -0.901 ± 0.13 |
| CGCGAGCAAUAUUACGGUGC |  | -2.47 ± 0.5 |
| CGCGAGCAAUAUUACGGUGU | -3.91 ± 0.17 | -2.34 ± 0.15 |
| CGCGAGCAAUAUUACGUCCU |  | -1.69 ± 0.48 |
| CGCGAGCAAUAUUACGUGAG | -4.51 ± 0.39 | -2.54 ± 0.32 |
| CGCGAGCAAUAUUACGUUCA | -2.43 ± 0.19 | -1.5 ± 0.17 |
| CGCGAGCAAUAUUACGUUUA | -3.98 ± 0.25 | -3.3 ± 0.28 |
| CGCUAGCAAUAUUACGAAAG | -1.17 ± 0.091 | -0.395 ± 0.1 |
